B1: M453 (antibody, V domains shown)
VH: QVTLKESGPVLVKPTETLTLTCTVSGFSLSTYGMGVGWIRQPPGKALEWLAHIWWDDVKRYNPALKSRLTISKDTSKSQVVLTMTNMDPVDTATYYCARMGSDYDVWFDYWGQGTLVTVSS
VL: EIVLTQSPATLSLSPGERATLSCRASKSISKYLAWYQQKPGQAPRLLIYSGSTLQSGIPARFSGSGSGTDFTLTISSLEPEDFAVYYCQQHDWGPYTFGQGTKLEIK
notes: anti-IL-13, human IgG1
B2: H2L6 HFS variant (antibody, V domains shown)
VH: QVTLKESGPVLVKPTETLTLTCTVSGFSLSTYGMGVGWIRQPPGKALEWLAHIWWDDVKRYNPALKSRLTISKDTSKSQVVLTMTNMDPVDTATYYCARMGSDYDVWFDYWGQGTLVTVSS
VL: EIVLTQSPATLSLSPGERATLSCRASKSISKYLAWYQQKPGQAPRLLIYSGSTLQSGIPARFSGSGSGTDFTLTISSLEPEDFAVYYCQQHNEYPYTFGQGTKLEIK
notes: IgG1; also called IL13-62
B3: M443 (antibody, V domains shown)
VH: QVTLKESGPVLVKPTETLTLTCTVSGFSLSTYGMGVGWIRQPPGKALEWLAHIWWDDVKRYNPALKSRLTISKDTSKSQVVLTMTNMDPVDTATYYCARMGSDYDVWFDYWGQGTLVTVSS
VL: EIVLTQSPATLSLSPGERATLSCRASKSISKYLAWYQQKPGQAPRLLIYSGSTLQSGIPARFSGSGSGTDFTLTISSLEPEDFAVYYCQQHSWGPYTFGQGTKLEIK
notes: anti-IL-13, human IgG1
B4: M444 (antibody, V domains shown)
VH: QVTLKESGPVLVKPTETLTLTCTVSGFSLSTYGMGVGWIRQPPGKALEWLAHIWWDDVKRYNPALKSRLTISKDTSKSQVVLTMTNMDPVDTATYYCARMGSDYDVWFDYWGQGTLVTVSS
VL: EIVLTQSPATLSLSPGERATLSCRASKSISKYLAWYQQKPGQAPRLLIYSGSTLQSGIPARFSGSGSGTDFTLTISSLEPEDFAVYYCQQHVWGPYTFGQGTKLEIK
notes: anti-IL-13, human IgG1
B5: M445 (antibody, V domains shown)
VH: QVTLKESGPVLVKPTETLTLTCTVSGFSLSTYGMGVGWIRQPPGKALEWLAHIWWDDVKRYNPALKSRLTISKDTSKSQVVLTMTNMDPVDTATYYCARMGSDYDVWFDYWGQGTLVTVSS
VL: EIVLTQSPATLSLSPGERATLSCRASKSISKYLAWYQQKPGQAPRLLIYSGSTLQSGIPARFSGSGSGTDFTLTISSLEPEDFAVYYCQQHLLGPYTFGQGTKLEIK
notes: anti-IL-13, human IgG1
B6: M446 (antibody, V domains shown)
VH: QVTLKESGPVLVKPTETLTLTCTVSGFSLSTYGMGVGWIRQPPGKALEWLAHIWWDDVKRYNPALKSRLTISKDTSKSQVVLTMTNMDPVDTATYYCARMGSDYDVWFDYWGQGTLVTVSS
VL: EIVLTQSPATLSLSPGERATLSCRASKSISKYLAWYQQKPGQAPRLLIYSGSTLQSGIPARFSGSGSGTDFTLTISSLEPEDFAVYYCQQHVGGPYTFGQGTKLEIK
notes: anti-IL-13, human IgG1
B7: M447 (antibody, V domains shown)
VH: QVTLKESGPVLVKPTETLTLTCTVSGFSLSTYGMGVGWIRQPPGKALEWLAHIWWDDVKRYNPALKSRLTISKDTSKSQVVLTMTNMDPVDTATYYCARMGSDYDVWFDYWGQGTLVTVSS
VL: EIVLTQSPATLSLSPGERATLSCRASKSISKYLAWYQQKPGQAPRLLIYSGSTLQSGIPARFSGSGSGTDFTLTISSLEPEDFAVYYCQQQDIGPYTFGQGTKLEIK
notes: anti-IL-13, human IgG1
B8: M448 (antibody, V domains shown)
VH: QVTLKESGPVLVKPTETLTLTCTVSGFSLSTYGMGVGWIRQPPGKALEWLAHIWWDDVKRYNPALKSRLTISKDTSKSQVVLTMTNMDPVDTATYYCARMGSDYDVWFDYWGQGTLVTVSS
VL: EIVLTQSPATLSLSPGERATLSCRASKSISKYLAWYQQKPGQAPRLLIYSGSTLQSGIPARFSGSGSGTDFTLTISSLEPEDFAVYYCQQHSHGPYTFGQGTKLEIK
notes: anti-IL-13, human IgG1
B9: M449 (antibody, V domains shown)
VH: QVTLKESGPVLVKPTETLTLTCTVSGFSLSTYGMGVGWIRQPPGKALEWLAHIWWDDVKRYNPALKSRLTISKDTSKSQVVLTMTNMDPVDTATYYCARMGSDYDVWFDYWGQGTLVTVSS
VL: EIVLTQSPATLSLSPGERATLSCRASKSISKYLAWYQQKPGQAPRLLIYSGSTLQSGIPARFSGSGSGTDFTLTISSLEPEDFAVYYCQQHESGPYTFGQGTKLEIK
notes: anti-IL-13, human IgG1
B10: M450 (antibody, V domains shown)
VH: QVTLKESGPVLVKPTETLTLTCTVSGFSLSTYGMGVGWIRQPPGKALEWLAHIWWDDVKRYNPALKSRLTISKDTSKSQVVLTMTNMDPVDTATYYCARMGSDYDVWFDYWGQGTLVTVSS
VL: EIVLTQSPATLSLSPGERATLSCRASKSISKYLAWYQQKPGQAPRLLIYSGSTLQSGIPARFSGSGSGTDFTLTISSLEPEDFAVYYCQQHDPGPYTFGQGTKLEIK
notes: anti-IL-13, human IgG1
B11: M451 (antibody, V domains shown)
VH: QVTLKESGPVLVKPTETLTLTCTVSGFSLSTYGMGVGWIRQPPGKALEWLAHIWWDDVKRYNPALKSRLTISKDTSKSQVVLTMTNMDPVDTATYYCARMGSDYDVWFDYWGQGTLVTVSS
VL: EIVLTQSPATLSLSPGERATLSCRASKSISKYLAWYQQKPGQAPRLLIYSGSTLQSGIPARFSGSGSGTDFTLTISSLEPEDFAVYYCQQPLDVPYTFGQGTKLEIK
notes: anti-IL-13, human IgG1
B12: M452 (antibody, V domains shown)
VH: QVTLKESGPVLVKPTETLTLTCTVSGFSLSTYGMGVGWIRQPPGKALEWLAHIWWDDVKRYNPALKSRLTISKDTSKSQVVLTMTNMDPVDTATYYCARMGSDYDVWFDYWGQGTLVTVSS
VL: EIVLTQSPATLSLSPGERATLSCRASKSISKYLAWYQQKPGQAPRLLIYSGSTLQSGIPARFSGSGSGTDFTLTISSLEPEDFAVYYCQQHLNGPYTFGQGTKLEIK
notes: anti-IL-13, human IgG1
B13: M454 (antibody, V domains shown)
VH: QVTLKESGPVLVKPTETLTLTCTVSGFSLSTYGMGVGWIRQPPGKALEWLAHIWWDDVKRYNPALKSRLTISKDTSKSQVVLTMTNMDPVDTATYYCARMGSDYDVWFDYWGQGTLVTVSS
VL: EIVLTQSPATLSLSPGERATLSCRASKSISKYLAWYQQKPGQAPRLLIYSGSTLQSGIPARFSGSGSGTDFTLTISSLEPEDFAVYYCQQQDYGPYTFGQGTKLEIK
notes: anti-IL-13, human IgG1
B14: M455 (antibody, V domains shown)
VH: QVTLKESGPVLVKPTETLTLTCTVSGFSLSTYGMGVGWIRQPPGKALEWLAHIWWDDVKRYNPALKSRLTISKDTSKSQVVLTMTNMDPVDTATYYCARMGSDYDVWFDYWGQGTLVTVSS
VL: EIVLTQSPATLSLSPGERATLSCRASKSISKYLAWYQQKPGQAPRLLIYSGSTLQSGIPARFSGSGSGTDFTLTISSLEPEDFAVYYCQQHNEAPYTFGQGTKLEIK
notes: anti-IL-13, human IgG1
B15: M456 (antibody, V domains shown)
VH: QVTLKESGPVLVKPTETLTLTCTVSGFSLSTYGMGVGWIRQPPGKALEWLAHIWWDDVKRYNPALKSRLTISKDTSKSQVVLTMTNMDPVDTATYYCARMGSDYDVWFDYWGQGTLVTVSS
VL: EIVLTQSPATLSLSPGERATLSCRASKSISKYLAWYQQKPGQAPRLLIYSGSTLQSGIPARFSGSGSGTDFTLTISSLEPEDFAVYYCQQHSYGPYTFGQGTKLEIK
notes: anti-IL-13, human IgG1
B16: M457 (antibody, V domains shown)
VH: QVTLKESGPVLVKPTETLTLTCTVSGFSLSTYGMGVGWIRQPPGKALEWLAHIWWDDVKRYNPALKSRLTISKDTSKSQVVLTMTNMDPVDTATYYCARMGSDYDVWFDYWGQGTLVTVSS
VL: EIVLTQSPATLSLSPGERATLSCRASKSISKYLAWYQQKPGQAPRLLIYSGSTLQSGIPARFSGSGSGTDFTLTISSLEPEDFAVYYCQQHDYAPYTFGQGTKLEIK
notes: anti-IL-13, human IgG1
B17: M459 (antibody, V domains shown)
VH: QVTLKESGPVLVKPTETLTLTCTVSGFSLSTYGMGVGWIRQPPGKALEWLAHIWWDDVKRYNPALKSRLTISKDTSKSQVVLTMTNMDPVDTATYYCARMGSDYDVWFDYWGQGTLVTVSS
VL: EIVLTQSPATLSLSPGERATLSCRASKSISKYLAWYQQKPGQAPRLLIYSGSTLQSGIPARFSGSGSGTDFTLTISSLEPEDFAVYYCQQPLEAPYTFGQGTKLEIK
notes: anti-IL-13, human IgG1
B18: M461 (antibody, V domains shown)
VH: QVTLKESGPVLVKPTETLTLTCTVSGFSLSTYGMGVGWIRQPPGKALEWLAHIWWDDVKRYNPALKSRLTISKDTSKSQVVLTMTNMDPVDTATYYCARMGSDYDVWFDYWGQGTLVTVSS
VL: EIVLTQSPATLSLSPGERATLSCRASKSISKYLAWYQQKPGQAPRLLIYSGSTLQSGIPARFSGSGSGTDFTLTISSLEPEDFAVYYCQQHSIGPYTFGQGTKLEIK
notes: anti-IL-13, human IgG1
B19: M462 (antibody, V domains shown)
VH: QVTLKESGPVLVKPTETLTLTCTVSGFSLSTYGMGVGWIRQPPGKALEWLAHIWWDDVKRYNPALKSRLTISKDTSKSQVVLTMTNMDPVDTATYYCARMGSDYDVWFDYWGQGTLVTVSS
VL: EIVLTQSPATLSLSPGERATLSCRASKSISKYLAWYQQKPGQAPRLLIYSGSTLQSGIPARFSGSGSGTDFTLTISSLEPEDFAVYYCQQHNFGPYTFGQGTKLEIK
notes: anti-IL-13, human IgG1
B20: M463 (antibody, V domains shown)
VH: QVTLKESGPVLVKPTETLTLTCTVSGFSLSTYGMGVGWIRQPPGKALEWLAHIWWDDVKRYNPALKSRLTISKDTSKSQVVLTMTNMDPVDTATYYCARMGSDYDVWFDYWGQGTLVTVSS
VL: EIVLTQSPATLSLSPGERATLSCRASKSISKYLAWYQQKPGQAPRLLIYSGSTLQSGIPARFSGSGSGTDFTLTISSLEPEDFAVYYCQQQDLGPYTFGQGTKLEIK
notes: anti-IL-13, human IgG1

What follows are binders tested against IL-13 (Homo sapiens (Human), UniProt P35225 35-146, limits assumed) (assay: Biacore).
Sequence of IL-13 (P35225 35-146 limits assumed): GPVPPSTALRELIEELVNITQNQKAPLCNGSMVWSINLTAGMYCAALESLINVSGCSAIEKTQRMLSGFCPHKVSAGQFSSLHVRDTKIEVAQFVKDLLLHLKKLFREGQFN

Binder	Kd	koff	kon
B1	0.044 nM	4.7e-05 s⁻¹	1.06e+06 M⁻¹ s⁻¹
B2	0.754 nM	0.000944 s⁻¹	1.25e+06 M⁻¹ s⁻¹
B3	0.088 nM	7.8e-05 s⁻¹	880000 M⁻¹ s⁻¹
B4	0.184 nM	0.00022 s⁻¹	1.2e+06 M⁻¹ s⁻¹
B5	0.262 nM	0.000291 s⁻¹	1.11e+06 M⁻¹ s⁻¹
B6	0.345 nM	0.000465 s⁻¹	1.35e+06 M⁻¹ s⁻¹
B7	0.055 nM	5.4e-05 s⁻¹	980000 M⁻¹ s⁻¹
B8	0.092 nM	0.000127 s⁻¹	1.39e+06 M⁻¹ s⁻¹
B9	0.089 nM	9e-05 s⁻¹	1.02e+06 M⁻¹ s⁻¹
B10	0.063 nM	0.000107 s⁻¹	1.71e+06 M⁻¹ s⁻¹
B11	0.177 nM	0.000333 s⁻¹	1.88e+06 M⁻¹ s⁻¹
B12	0.233 nM	0.00027 s⁻¹	1.16e+06 M⁻¹ s⁻¹
B13	0.065 nM	7.4e-05 s⁻¹	1.13e+06 M⁻¹ s⁻¹
B14	0.186 nM	0.000303 s⁻¹	1.63e+06 M⁻¹ s⁻¹
B15	0.148 nM	0.000182 s⁻¹	1.24e+06 M⁻¹ s⁻¹
B16	0.193 nM	0.000214 s⁻¹	1.11e+06 M⁻¹ s⁻¹
B17	0.356 nM	0.000449 s⁻¹	1.26e+06 M⁻¹ s⁻¹
B18	0.193 nM	0.000257 s⁻¹	1.33e+06 M⁻¹ s⁻¹
B19	0.366 nM	0.000417 s⁻¹	1.14e+06 M⁻¹ s⁻¹
B20	0.037 nM	6.3e-05 s⁻¹	1.7e+06 M⁻¹ s⁻¹
